Reference: patent publication US20100047255A1 (Harvard, published 2010)
Changes are numbered by the printed parent chain. Numbers in names are those of the source.

B1: Flag-HA-Uba6^C625S (enzyme)
chain: MEGSEPVAAHQGEKASCSSWGTGSTNKNLPIMSTASVEIDDALYSRQRYVLGDTAMQKMAKSHVFLSGMGGLGLEIAKNLVLAGIKAVTIHDTEKCQAWDLGTNFFLSEDDVVNKRNRAEAVLKHIAELNPYVHVTSSSAPFNETTDLSFLDKYQCVVLTEMKLPLQKKINDFCRSQCPPIKFISADVHGIWSRLFCDFGDEFEVLDTTGEEPKEIFISNITQTNPGIVTCLENHPHKLETGQFLTFREINGMTGLNGSIQQITVISPFSFSIGDTTELEPYLHGGIAVQVKTPKTVFFESLERQLKHPKCLIVDFSNPEAPLEIHTAMLALDQFQEKYSRKPNVGCQQDSEELLKLATSISETLEEKPDVNADIVHWLSWTAQGFLSPLAAAVGGVASQEVLKAVTGKFSPLCQWLYLEAADIVESLGKPECEEFLPRGDRYDALRACIGDTLCQKLQNLNIFLVGCGAIGCEMLKNFALLGVGTSKEKGMITVTDPDLIEKSNLNRQFLFRPHHIQKPKSYTAADATLKINSQIKIDAHLNKVCPTTETIYNDEFYTKQDVIITALDNVEARRYVDSRCLANLRPLLDSGTMGTKGHTEVIVPHLTESYNSHRDPPEEEIPFSTLKSFPAAIEHTIQWARDKFESSFSHKPSLFNKFWQTYSSAEEVLQKIQSGHSLEGCFQVIKLLSRRPRNWSQCVELARLKFEKYFNHKALQLLHCFPLDIRLKDGSLFWQSPKRPPSPIKFDLNEPLHLSFLQNAAKLYATVYCIPFAEEDLSADALLNILSEVKIQEFKPSNKVVQTDETARKPDHVPISSEDERNAIFQLEKAILSNEATKSDLQMAVLSFEKDDDHNGHIDFITAASNPRAKMYSIEPADRFKTKRIAGKIIPAIATTTATVSGLVALEMIKVTGGYPFEAYKNCFLNLAIPIVVFTETTEVRKTKIRNGISFTIWDRWTVHGKEDFTLLDFINAVKEKYGIEPTMVVQGVKMLYVPVMPGHAKRLKLTMHKLVKPTTEKKYVDLTVSFAPDIDGDEDLPGPPVRYYFSHDTD
notes: Catalytic cysteine changed to serine; also called C625S mutant; Flag-HA-Ub6^C625S; not shown: N-terminal Flag-HA tag
B2: Flag-HA-Uba6 (enzyme)
chain: B1 chain with S625C
notes: also called HA-Flag-Uba6; wild-type Uba6 with N-terminal Flag-HA tag; not shown: N-terminal Flag-HA tag

Columns and labels:
[1] = target: Nedd8 (endogenous protein of 293T cells) (human, UniProt Q15843 1-76); assay: anti-Nedd8 immunoblot of anti-HA immune complexes from 293T cells, non-reducing SDS-PAGE
[2] = target: ubiquitin (endogenous protein of 293T cells) (human, UniProt P0CG48 1-76); assay: LC/MS/MS (LTQ-Orbitrap) of Flag-HA-Uba6˜Ub purified from mammalian cells

Sequence of Nedd8 (endogenous protein of 293T cells) (Q15843 1-76 limits assumed): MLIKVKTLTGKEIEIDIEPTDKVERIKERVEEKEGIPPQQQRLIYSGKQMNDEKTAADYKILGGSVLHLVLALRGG

| Binder | binding result [1] | binding result [2] |
| --- | --- | --- |
| B1 | no binding | – |
| B2 | – | binds |
